Measurements published in patent US9598481B2 (priority 2012, dated 2017).
Values joined by “and” are separate entries in the source; they are usually repeats but may differ in a detail not shown here. Equal values may be shown once.

Columns and labels:
[1] = system: H5N1 A/Vietnam/1203/04 influenza A virus; format: in vivo, ferrets (Mustela putorius furo)
[2] = system: Group1 influenza A virus strains; format: cell-based
[3] = system: Group2 influenza A virus strains; format: cell-based
[4] = system: hemagglutinin H3 from A/HK/8/1968; format: binding, influenza A virus
[5] = system: hemagglutinin H1 from A/NWS/1933; format: binding, influenza A virus
H3N2 A/Aichi/2/1968 [6] = system: H3N2 A/Aichi/2/1968; set-up: species or system DBA/2J mice; conditions: mouse, in vivo
H3N2 A/Hong Kong/1/1968 = system: H3N2 A/Hong Kong/1/1968; set-up: species or system DBA/2J mice; conditions: mouse
[7] = system: H3N2 A/Port Chalmers/1/1973; set-up: species or system DBA/2J mice; conditions: mouse, in vivo
[8] = system: H3N2 A/Port Chalmers/1/1973; format: cell-based, influenza A virus; conditions: read-out: in vitro IC50
H3N2 A/Aichi/2/1968 [9] = format: cell-based, influenza A virus; conditions: read-out: in vitro IC50
[10] = system: HIV pseudotype virus bearing hemagglutinin H5 from H5N1/Vietnam/1203/2004; format: cell-based
[11] = read-out: EC50 competition with biotinylated mAb 39.29

CCOC(=O)C1=C[C@@H](OC(CC)CC)[C@H](NC(C)=O)[C@@H](N)C1 [oseltamivir, oseltamivir phosphate, reference compound]
mortality ([1]; twice-daily oral 25 mg/kg for 5 days, irrespective of treatment initiation time (48 or 72 hours)): 50%

B1: mAb 81.39 SVSH-NYP: anti-hemagglutinin monoclonal antibody; VL SEQ ID NO:117, VH SEQ ID NO:115 (antibody, V domains shown)
VH: EVQLVESGGGVVQPGRSLRLSCAASGFAFHNRAMHWVRQAPGKGLEWVALIYFDGSKQYYADSVKGRFTISRDNSKNTVFLQMNSLRPEDTAVYYCAVPGPIFGIFPPWSYFDHWGQGILVTVSS
VL: EIVLTQSPATLSVSPGERATLSCRASQSVSHNLAWYQQKPGQAPRLLVYSASTRATGIPARFSGSGSGTEFTLAISSLQSEDFAVYYCQHYTNYPPRLTFGGGSKVEIK
in vitro neutralization of Group1 influenza A virus panel [2]: effective at the in vitro neutralization of all influenza A virus strains tested | in vitro neutralization of Group2 influenza A virus panel [3]: effective at the in vitro neutralization of all influenza A virus strains tested

B2: mAb 81.39 B1C1: anti-hemagglutinin monoclonal antibody; VL SEQ ID NO:113, VH SEQ ID NO:111 (antibody, V domains shown)
VH: QVQLVESGGGVVQPGRSLRLSCAASGFAFHNRAMHWVRQAPGKGLEWVALIYFDGSKQYYADSVKGRFTISRDNSKNTVFLQMNSLRPEDTAVYYCAVPGPIFGIFPPWSYFDHWGQGILVTVSS
VL: EIVLTQSPATLSVSPGERATLSCRASQSVDSNLAWYQQKPGQAPRLLVYSASTRATGIPARFSGSGSGTEFTLAISSLQSEDFAVYYCQHYTNWPPRLTFGGGSKVEIK
survival ([1]; in vivo, iv, 25 mg/kg): 100% and 80%

B3: mAb 81.39: anti-hemagglutinin monoclonal antibody 81.39, variant not specified in the competition ELISA (antibody, V domains shown)
VH: EVQLVESGGGVVQPGRSLRLSCAASGFAFHNRAMHWVRQAPGKGLEWVALIYFDGSKQYYADSVKGRFTISRDNSKNTVFLQMNSLRPEDTAVYYCAVPGPIFGIFPPWSYFDHWGQGILVTVSS
VL: EIVLTQSPATLSVSPGERATLSCRASQSVSHNLAWYQQKPGQAPRLLVYSASTRATGIPARFSGSGSGTEFTLAISSLQSEDFAVYYCQHYTNWPPRLTFGGGSKVEIK
competition for binding with mAb 39.29 on Group2 H3 hemagglutinin stalk epitope [4]: compete for binding | EC50 [4, 11]: 4.21 nM | competition for binding of mAb 39.29 on Group1 H1 hemagglutinin stalk [5]: compete for binding | EC50 [5, 11]: 2.15 nM

B4: mAb9.01F3: phage-display derived anti-hemagglutinin monoclonal antibody; VL SEQ ID NO:166, VH SEQ ID NO:164 (antibody, V domains shown)
VH: QVQLVQSGAEVKQPGASVKVSCKASGYTFNAYYIHWVRQAPGQGLEWMGWINPNFGGTHYARKFQGRVTMTRDASINTAYMELDRLISDDTAVYYCVRWRAAAVIMDQFYKMDVWGQGTLVTVSS
VL: SSELTQPPSASGTPGQRVTISCSGSTSNIGYNPVSWYQQVPGTAPKLLIYSNTERPSGVPDRFSGSKSGTSASLAISGLQSEDEADYYCAAWDDTLNGPVFGGGTKVTVL
in vitro neutralization of Group1 influenza A virus panel [2]: not able to neutralize any Group1 influenza A virus isolate tested | competition for binding with mAb 39.29 on Group2 H3 hemagglutinin stalk epitope [4]: compete for binding | competition for binding of mAb 39.29 on Group1 H1 hemagglutinin stalk [5]: do not compete for binding | in vitro neutralization of Group2 influenza A virus panel [3]: able to neutralize the entire Group2 influenza A virus panel examined

B5: mAb 39.29 NCv1: anti-hemagglutinin monoclonal antibody; VL SEQ ID NO:144, VH SEQ ID NO:142 (antibody, V domains shown)
VH: QVQLVESGGGVVQPGKSPRLSCAASGPTFSSYAVHWVRQAPGKGLEWVTLISYDGANQYYADSVKGRFTISRDNSKNTVYLQMNSLRPEDTAVYYCAVPGPVFGIFPPWSYFDNWGQGILVTVSS
VL: EIVLTQSPATLSVSPGERATLSCRASQVISHNLAWYQQKPGQAPRLLIYGASTRASGIPARFSGSGSGTDYTLTITSLQPEDFAVYYCQHYSNWPPRLTFGGGTKVEIK
efficacy at all tested doses (H3N2 A/Aichi/2/1968 [6]): very efficacious | mice protected (survival) (H3N2 A/Hong Kong/1/1968; in vivo): 87.5% and 75% | minimum efficacious dose in vivo (H3N2 A/Hong Kong/1/1968; iv): 15 mg/kg | efficacy at all tested doses [7]: very efficacious | IC50 [8]: 2.9 nM | IC50 (H3N2 A/Aichi/2/1968 [9]): 35 nM | in vitro neutralization of pseudotype virus expressing hemagglutinin H5 [10]: dose-dependent in vitro neutralization

B6: mAb 36.89: anti-hemagglutinin monoclonal antibody; VL SEQ ID NO:162, VH SEQ ID NO:160 (antibody, V domains shown)
VH: QVQLVQSGAELKRPGASVKVSCKTSGYSFNNYGINWVRQAPGQGLEWMGWISAYTGNTHYAKNFEGRVTLTTDTSTSTAYMEVRSLRSDDSAVYFCARAMIQGVVTLYLRPGDYWGQGTLVTVSS
VL: DIVMTQSPSTLSASVGDRVTITCRASQSIGNWLAWYQQKPGKAPKLLIYKVSTLESGVPSRFSGSGSGTEFTLTINSLQPDDFATYYCQRYTSNSQGFTFGQGTKLEIK
in vitro neutralization of Group1 influenza A virus panel [2]: not able to neutralize any Group1 influenza A virus isolate tested | competition for binding with mAb 39.29 on Group2 H3 hemagglutinin stalk epitope [4]: compete for binding | competition for binding of mAb 39.29 on Group1 H1 hemagglutinin stalk [5]: do not compete for binding | in vitro neutralization of Group2 influenza A virus panel [3]: able to neutralize the entire Group2 influenza A virus panel examined

B7: mAb23.06C2: phage-display derived anti-hemagglutinin monoclonal antibody; VL SEQ ID NO:170, VH SEQ ID NO:168 (antibody, V domains shown)
VH: QVQLQESGPGLVKPSETLSLTCTVSGGLIGTGSYYWGWIRQTPGKGMEWIGSISYSGSTYYHPSLKSRVTISDDTSKNQLFLKLRSVTAADTAQYYCARYNWGIRYFDFWGRGTLVTVSS
VL: DIQLTQSPLSPPVTLGQPASISCRSSQSLLYTDGFTYLSWYHQRPGQSPRRLIYKISNRDSGVPDRFSGSGSGTDFTLKISRVEAEDVGVYYCMQATHWPLTFGEGTKVEIK
in vitro neutralization of Group1 influenza A virus panel [2]: not able to neutralize any Group1 influenza A virus isolate tested | competition for binding with mAb 39.29 on Group2 H3 hemagglutinin stalk epitope [4]: compete for binding | competition for binding of mAb 39.29 on Group1 H1 hemagglutinin stalk [5]: do not compete for binding | in vitro neutralization of Group2 influenza A virus panel [3]: able to neutralize the entire Group2 influenza A virus panel examined

B8: mAb 39.18 B11: anti-hemagglutinin monoclonal antibody; VL SEQ ID NO:156, VH SEQ ID NO:154 (antibody, V domains shown)
VH: EVQLVQSGAEVKKPGSSMKVSCKASGSIFSNYGISWVRQAPGQGLEWMGGIIPIFGAANYAQKFQGRVTITADESTSTVYMEVRSLRSEDTAVYYCARRQQLYKGYYHHWGQGTLVTVSS
VL: EIVLTQSPATLSVSPGERVTLSCRASQSVANNLAWYQQKPGQSPRLLIYGASTRDTGIPARFSGSGSGTEFTLTISSLQSEDFAVYYCQQYNNWPPMYTFGQGTKLEIK
in vitro neutralization of Group1 influenza A virus panel [2]: effective at in vitro neutralization of the entire Group1 influenza A virus panel examined | in vitro neutralization of Group2 influenza A virus panel [3]: not able to neutralize Group2 influenza A virus strains
